Measured values from patent US20160120951A1 (ZEALAND PHARMA A S, published 2016).
Numbered stars: 1 amine (or outer) side, 2 acyl side, 3 side chain; on linkers, the order of the positions; unused ones are H or OH. Square brackets hold non-standard residues; d marks the D form. Side chains are listed from the residue outwards. Ends that are not written are not given here. * marks the point of attachment. γGlu = O=C(O)[C@H](CCC(=O)[*:2])N[*:1]; Palmitoyl = CCCCCCCCCCCCCCCC(=O)*; Aib = CC(C)(N)C(=O)O

B1: Compound 1 (peptide)
peptide: H-HSQGTFTSDYSKYLDSKAAHDFVEWLLRA-NH2
B2: Compound 11 (peptide)
peptide: H-H[Aib]QGTFTSDYSKYLDSK([γGlu-Palmitoyl])AAHDFVEWLLRA-NH2
SMILES: CCCCCCCCCCCCCCCC(=O)N[C@@H](CCC(=O)NCCCC[C@H](NC(=O)[C@H](CO)NC(=O)[C@H](CC(=O)O)NC(=O)[C@H](CC(C)C)NC(=O)[C@H](Cc1ccc(O)cc1)NC(=O)[C@H](CCCCN)NC(=O)[C@H](CO)NC(=O)[C@H](Cc1ccc(O)cc1)NC(=O)[C@H](CC(=O)O)NC(=O)[C@H](CO)NC(=O)[C@@H](NC(=O)[C@H](Cc1ccccc1)NC(=O)[C@@H](NC(=O)CNC(=O)[C@H](CCC(N)=O)NC(=O)C(C)(C)NC(=O)[C@@H](N)Cc1c[nH]cn1)[C@@H](C)O)[C@@H](C)O)C(=O)N[C@@H](C)C(=O)N[C@@H](C)C(=O)N[C@@H](Cc1c[nH]cn1)C(=O)N[C@@H](CC(=O)O)C(=O)N[C@@H](Cc1ccccc1)C(=O)N[C@H](C(=O)N[C@@H](CCC(=O)O)C(=O)N[C@@H](Cc1c[nH]c2ccccc12)C(=O)N[C@@H](CC(C)C)C(=O)N[C@@H](CC(C)C)C(=O)N[C@@H](CCCNC(=N)N)C(=O)N[C@@H](C)C(N)=O)C(C)C)C(=O)O
B3: Compound 17 (peptide)
peptide: HXQGTFTSDYSKYLDSKAAHDFVEWLLSA
modifications: Aib at position 2; K(Hexadecanoyl-ε-Lys) at position 17; C-terminal amide (NH2)
B4: Compound 3 (peptide)
peptide: H-HSQGTFTSDYSKYLDSK([γGlu-Palmitoyl])AAHDFVEWLLRA-NH2
SMILES: CCCCCCCCCCCCCCCC(=O)N[C@@H](CCC(=O)NCCCC[C@H](NC(=O)[C@H](CO)NC(=O)[C@H](CC(=O)O)NC(=O)[C@H](CC(C)C)NC(=O)[C@H](Cc1ccc(O)cc1)NC(=O)[C@H](CCCCN)NC(=O)[C@H](CO)NC(=O)[C@H](Cc1ccc(O)cc1)NC(=O)[C@H](CC(=O)O)NC(=O)[C@H](CO)NC(=O)[C@@H](NC(=O)[C@H](Cc1ccccc1)NC(=O)[C@@H](NC(=O)CNC(=O)[C@H](CCC(N)=O)NC(=O)[C@H](CO)NC(=O)[C@@H](N)Cc1c[nH]cn1)[C@@H](C)O)[C@@H](C)O)C(=O)N[C@@H](C)C(=O)N[C@@H](C)C(=O)N[C@@H](Cc1c[nH]cn1)C(=O)N[C@@H](CC(=O)O)C(=O)N[C@@H](Cc1ccccc1)C(=O)N[C@H](C(=O)N[C@@H](CCC(=O)O)C(=O)N[C@@H](Cc1c[nH]c2ccccc12)C(=O)N[C@@H](CC(C)C)C(=O)N[C@@H](CC(C)C)C(=O)N[C@@H](CCCNC(=N)N)C(=O)N[C@@H](C)C(N)=O)C(C)C)C(=O)O
B5: Compound 2 (peptide)
peptide: HSQGTFTSDYSKYLDK([γGlu-Palmitoyl])KAAHDFVEWLLRA-NH2
modifications: N-terminus assumed
SMILES: CCCCCCCCCCCCCCCC(=O)N[C@@H](CCC(=O)NCCCC[C@H](NC(=O)[C@H](CC(=O)O)NC(=O)[C@H](CC(C)C)NC(=O)[C@H](Cc1ccc(O)cc1)NC(=O)[C@H](CCCCN)NC(=O)[C@H](CO)NC(=O)[C@H](Cc1ccc(O)cc1)NC(=O)[C@H](CC(=O)O)NC(=O)[C@H](CO)NC(=O)[C@@H](NC(=O)[C@H](Cc1ccccc1)NC(=O)[C@@H](NC(=O)CNC(=O)[C@H](CCC(N)=O)NC(=O)[C@H](CO)NC(=O)[C@@H](N)Cc1c[nH]cn1)[C@@H](C)O)[C@@H](C)O)C(=O)N[C@@H](CCCCN)C(=O)N[C@@H](C)C(=O)N[C@@H](C)C(=O)N[C@@H](Cc1c[nH]cn1)C(=O)N[C@@H](CC(=O)O)C(=O)N[C@@H](Cc1ccccc1)C(=O)N[C@H](C(=O)N[C@@H](CCC(=O)O)C(=O)N[C@@H](Cc1c[nH]c2ccccc12)C(=O)N[C@@H](CC(C)C)C(=O)N[C@@H](CC(C)C)C(=O)N[C@@H](CCCNC(=N)N)C(=O)N[C@@H](C)C(N)=O)C(C)C)C(=O)O
B6: Compound 4 (peptide)
peptide: H-HSQGTFTSDYSKYLDSKAAK([γGlu-Palmitoyl])DFVEWLLRA-NH2
SMILES: CCCCCCCCCCCCCCCC(=O)N[C@@H](CCC(=O)NCCCC[C@H](NC(=O)[C@H](C)NC(=O)[C@H](C)NC(=O)[C@H](CCCCN)NC(=O)[C@H](CO)NC(=O)[C@H](CC(=O)O)NC(=O)[C@H](CC(C)C)NC(=O)[C@H](Cc1ccc(O)cc1)NC(=O)[C@H](CCCCN)NC(=O)[C@H](CO)NC(=O)[C@H](Cc1ccc(O)cc1)NC(=O)[C@H](CC(=O)O)NC(=O)[C@H](CO)NC(=O)[C@@H](NC(=O)[C@H](Cc1ccccc1)NC(=O)[C@@H](NC(=O)CNC(=O)[C@H](CCC(N)=O)NC(=O)[C@H](CO)NC(=O)[C@@H](N)Cc1c[nH]cn1)[C@@H](C)O)[C@@H](C)O)C(=O)N[C@@H](CC(=O)O)C(=O)N[C@@H](Cc1ccccc1)C(=O)N[C@H](C(=O)N[C@@H](CCC(=O)O)C(=O)N[C@@H](Cc1c[nH]c2ccccc12)C(=O)N[C@@H](CC(C)C)C(=O)N[C@@H](CC(C)C)C(=O)N[C@@H](CCCNC(=N)N)C(=O)N[C@@H](C)C(N)=O)C(C)C)C(=O)O

What follows are binders tested against T1, human glucagon receptor (Glucagon-R) (human, UniProt P47871 26-477) (assay: cell-based or functional assay).

| GluR EC50 (nM) (1), cAMP formation in primary human hepatocytes | GluR EC50 (nM) (2), cAMP formation in primary human hepatocytes | GluR EC50 (nM) (log avg), cAMP formation in primary human hepatocytes | Binder |
| --- | --- | --- | --- |
| 1.4 | 2.2 | 1.8 | B1 |
| 32.9 | 25.5 | 28.9 | B2 |

Biological target: T1, human glucagon receptor (Glucagon-R)
Assay: cell-based or functional assay
Remark: another data set of the same source

| EC50 (nM) GluR, cAMP formation [nM] | Binder |
| --- | --- |
| 0.06 | B1 |
| 0.39 | B3 |
| 0.16 | B2 |
| 0.12 | B4 |
| 0.13 | B5 |
| 0.04 | B6 |

These binders were tested against human glucagon-like peptide 1 receptor (GLP-1R) (human, UniProt P43220 24-463) (assay: cell-based or functional assay).
Chain of human glucagon-like peptide 1 receptor (GLP-1R) (P43220 24-463): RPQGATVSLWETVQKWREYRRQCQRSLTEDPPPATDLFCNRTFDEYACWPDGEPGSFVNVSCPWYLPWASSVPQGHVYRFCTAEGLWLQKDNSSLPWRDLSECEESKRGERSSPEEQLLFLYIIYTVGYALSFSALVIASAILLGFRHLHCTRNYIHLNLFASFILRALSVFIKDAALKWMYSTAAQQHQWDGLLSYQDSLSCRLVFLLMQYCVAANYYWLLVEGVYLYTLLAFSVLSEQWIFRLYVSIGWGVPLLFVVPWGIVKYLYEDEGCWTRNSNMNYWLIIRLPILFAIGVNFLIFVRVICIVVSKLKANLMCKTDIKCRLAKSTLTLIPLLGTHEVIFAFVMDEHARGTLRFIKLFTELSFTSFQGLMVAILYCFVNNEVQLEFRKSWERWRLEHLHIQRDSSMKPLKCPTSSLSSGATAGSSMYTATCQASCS

| EC50 (nM) GLP-1R, cAMP formation [nM] | Binder |
| --- | --- |
| 0.06 | B1 |
| 0.09 | B3 |
| 0.09 | B2 |
| 0.11 | B4 |
| 0.2 | B5 |
| 0.1 | B6 |
